Results taken from patent EP4702986A1, “POLYPEPTIDE AND USE THEREOF” (Biocells (Beijing) Biotech Co., Ltd., priority 2023, dated 2024).
Read-outs that look alike come from different tables or passages of the source. Numbered stars: 1 amine (or outer) side, 2 acyl side, 3 side chain; on linkers, the order of the positions; unused ones are H or OH. Ends that are not written are not given here. * marks the point of attachment. Fumaroyl = O=C(O)/C=C/C(=O)*; Suc = O=C(CCC(=O)[*:2])[*:1]

Biological target: T1, human ETB receptor (Homo sapiens, UniProt P24530)
T1 construct: expressed in transfected cells; host or cells: 293T-17 cells, transient transfection
T1 sequence (P24530 27-442): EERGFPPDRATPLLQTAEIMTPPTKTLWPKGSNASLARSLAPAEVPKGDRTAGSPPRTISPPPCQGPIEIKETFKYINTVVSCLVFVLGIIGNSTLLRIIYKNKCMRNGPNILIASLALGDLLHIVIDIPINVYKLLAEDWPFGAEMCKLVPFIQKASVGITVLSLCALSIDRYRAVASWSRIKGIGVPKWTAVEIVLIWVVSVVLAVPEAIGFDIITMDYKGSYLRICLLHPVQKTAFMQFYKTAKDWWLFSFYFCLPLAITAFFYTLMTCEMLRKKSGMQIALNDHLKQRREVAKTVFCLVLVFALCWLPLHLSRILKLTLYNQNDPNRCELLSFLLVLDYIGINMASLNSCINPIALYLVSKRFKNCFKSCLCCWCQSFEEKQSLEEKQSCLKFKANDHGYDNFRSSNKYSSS
Assay: Screening of polypeptides for activity on human ETB receptor (IP-One Gq kit, % of positive control IRL1620)
Type: cell-based
Experimental: 293T-17 cells were seeded at a density of 650,000 cells per well in a 6-well plate and cultured overnight in an incubator at 37°C and 5% CO2. Afterward, the cells were transfected with an expression vector, PCDNA3.1-hETB which contained a human ETB receptor gene, at a plasmid concentration of 2.5 µg per well. The cells were further cultured for 48 hours, and green fluorescence expression was observed under a fluorescence microscope. The cells were then digested with trypsin and counted. The activity of compounds on the human ETB receptor was determined with the IP-One Gq kit from Cisbio Bioassays. The cells were suspended in Stim Buffer provided in the kit and the cell suspension was added to a 96-well detection plate at 7 µL cell suspension (containing 30,000 cells) per well. The polypeptides to be screened for activity (prepared according to the Preparation Example of the invention) and polypeptide IRL1620 as positive control were dissolved in Stim B to be at a concentration of 2×, and 7 µL was added to the test cells, while 7 µL of PBS solution was added to the cells in the negative control wells. IRL1620 was used as the positive control polypeptide. The plate was sealed and incubated at 37°C for 1 hour in a cell culture incubator. Test wells, positive control wells, and PBS control wells were each added with 3 µL of IP1 d2 working solution and 3 µL of IP1 Tb cryptotate Antibody working solution. The plate was then sealed and incubated in the dark at room temperature (25°C±5°C) for 1 hour. The plate seal was removed, and the […] at 665 nm and 620 nm was measured with an ID5 microplate reader. The ratio of the acceptor emission signal to the donor emission signal, i.e., the value of (signal at 665 nm/signal at 620 nm)×10^4, was calculated for each well. With F1 representing the average value of values of signal at 665 nm/signal at 620 nm determined for the test sample at a specific concentration, F2 representing the average value of values of signal at 665 nm/signal at 620 nm determined for the positive control IRL1620 at the same concentration, and T1 representing the average value of values of signal at 665 nm/signal at 620 nm determined for the PBS negative control, the percentage of activity of the test polypeptide sample relative to the positive control sample IRL1620 is equal to (F1-T1)×100/(F2-T1). hETB sequence (NCBI accession number NM_000115.5).

| hETBR agonist activity, percentage of activity relative to IRL1620 [%@100nM] | hETBR agonist activity, percentage of activity relative to IRL1620 (@10nM) [%@10nM] | Substance |
| --- | --- | --- |
| 93.46 | 125.64 | Fum-DEEEVYFAHOrnDIIW [BX-59] |
| 121.58 | 86.20 | Suc-DE cyclo(CEEC)YFAHKDIIW (Suc-DECEECYFAHKDIIW; not fully specified (bridges); printed as Suc-DE cyclo(CEEC)YFAHKDIIW; also: cyclo(CEEC) in N-terminal extension, bond type not given here) [BX-57] |
| 121.00 | 145.60 | Fum-DEEEVYFAHKDIIW (Fumaroyl-DEEEVYFAHKDIIW) [BX-52] |
